{"source": "paper PMC5774828", "molecular_target": "DS protein (Dengue-HBsAg fusion: EDIII of DENV-1, -3, -4 and -2 joined in tandem to the HBV S antigen) (dengue virus 1 (West Pac-74) | dengue virus 3 (H87/56) | dengue virus 4 (H241-P) | dengue virus 2 (PR159-S1/69) | hepatitis B virus (adw serotype))", "experiment": "densitometry of a Western blot of the purified VLPs; Western blot of purified DSV4 developed with anti-S mAb 5S; ratio from the peak areas of DS, S and S dimer (ImageJ)"}
{"substance": "Hepatitis B virus surface (S) antigen, unfused (natural protein)", "values": [{"measurement": "stoichiometry N", "result": 4, "unit": "S per DS"}]}
